In general, stoichiometry N refers to a count of units in the complex or per binding partner.

The values below come from PMC10666116, “Tunable force transduction through the Escherichia coli cell envelope” (Proceedings of the National Academy of Sciences of the …, 2023).

This data set concerns the molecule itself. In words: cryo-EM structure; single-particle cryo-EM of purified TolQR complex at 7.5 mg/mL in SEC buffer (50 mM Tris/HCl pH 7.5, 300 mM NaCl, 2 mM EDTA, 0.01% LMNG); rigid-body refinement of a published model.

B1: TolQ (natural protein, E. coli, UniProt P0ABU9 1-230, looked up)
chain: MTDMNILDLFLKASLLVKLIMLILIGFSIASWAIIIQRTRILNAAAREAEAFEDKFWSGIELSRLYQESQGKRDNLTGSEQIFYSGFKEFVRLHRANSHAPEAVVEGASRAMRISMNRELENLETHIPFLGTVGSISPYIGLFGTVWGIMHAFIALGAVKQATLQMVAPGIAEALIATAIGLFAAIPAVMAYNRLNQRVNKLELNYDNFMEEFTAILHRQAFTVSESNKG
notes: TolQ, E. coli, inner-membrane motor protein of the Tol system; expressed from pCEP13 (pT12-tolQ-tolR); Pentamer in the TolQR complex; also called TolQ pentamer; motor subunit of TolQR
Turning to B1, the “stoichiometry N” value was 5.
